Where a chain is given by its changes, count along the chain named.
Legend:
Assay in all cases: Western blot of culture supernatant (non-reducing SDS-PAGE) probed with 3F7 mAb, anti-human IgG-FITC
A589D = target: T1, A589D
T1 construct: also called Mu-FXII A589D mutant with C-terminal 8xHis-tag; mutant n)
T1 single chain: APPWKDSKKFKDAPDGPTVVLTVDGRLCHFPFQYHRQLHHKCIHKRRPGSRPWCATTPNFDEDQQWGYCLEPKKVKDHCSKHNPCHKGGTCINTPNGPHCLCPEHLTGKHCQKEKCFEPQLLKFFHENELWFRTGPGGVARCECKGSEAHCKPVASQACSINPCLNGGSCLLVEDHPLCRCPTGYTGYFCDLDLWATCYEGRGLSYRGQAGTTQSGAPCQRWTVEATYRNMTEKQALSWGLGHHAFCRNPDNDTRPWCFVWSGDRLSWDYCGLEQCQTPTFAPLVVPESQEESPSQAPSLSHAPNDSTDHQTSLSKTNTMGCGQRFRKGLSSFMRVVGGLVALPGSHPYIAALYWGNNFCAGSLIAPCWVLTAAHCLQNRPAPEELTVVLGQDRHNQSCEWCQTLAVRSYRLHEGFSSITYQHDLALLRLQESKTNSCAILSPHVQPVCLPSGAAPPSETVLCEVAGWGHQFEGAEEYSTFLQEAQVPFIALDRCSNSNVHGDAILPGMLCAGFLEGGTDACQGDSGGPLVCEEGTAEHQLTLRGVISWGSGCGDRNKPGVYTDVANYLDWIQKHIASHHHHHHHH
Experimental: (§1) Proteins were then transferred electrophoretically onto nitrocellulose filters and blocked for 1 hour in 5% Milk powder in Tris-buffered saline with 0.05% Tween-20 (TTBS). Filters were then incubated for 1 hour with either 3F7 mAb or an anti-His mAb 3H3 (both at […] in TTBS with 5% Milk powder), washed thoroughly with TTBS, then incubated for a further hour with anti-human IgG-FITC or anti-mouse IgG-FITC, respectively (Millipore, USA; both at 0.25 mg/ml in TTBS with 5% Milk powder). Following further washing of membranes in TTBS, Ab-FITC bound proteins were visualized using a Typhoon variable mode analyzer (GE Healthcare, USA).

A385D = target: T2, A385D
T2 construct: also called Mu-FXII A385D mutant with C-terminal 8xHis-tag; mutant b)
T2 single chain: T1 single chain with A366D, D570A
Experimental: as §1

Q450R = target: T3, Q450R
T3 construct: also called Mu-FXII Q450R mutant with C-terminal 8xHis-tag; mutant g)
T3 single chain: T1 single chain with Q431R, D570A
Experimental: as §1

S452G = target: T4, S452G
T4 construct: also called Mu-FXII S452G mutant with C-terminal 8xHis-tag; mutant i)
T4 single chain: T1 single chain with S433G, D570A
Experimental: as §1

- binding result (A589D): binds
- binding result (A385D): binds
- binding result (Q450R): binds
- binding result (S452G): binds
B1: monoclonal antibody 3F7 (fully human IgG4/lambda) (antibody, V domains shown)
VH: EVQLLESGGGLVQPGGSLRLSCAASGFTFSKYIMQWVRQAPGKGLEWVSGIRPSGGTTVYADSVKGRFTISRDNSKNTLYLQMNSLRAEDTAVYYCARALPRSGYLISPHYYYYALDVWGQGTTVTVSS
VL: QSELTQPPSASGTPGQRVTISCSGSSSNIGRNYVYWYQQVPGTAPKLLIYSNNQRPSGVPDRFSGSKSGTSASLVISGLRSEDEADYYCAAWDASLRGVFGGGTKLTVLG
notes: also called 3F7 mAb; MAb 3F7

— US20200062863A1 (CSL BEHRING, published 2020)
